Measured values from the supplement of paper PMC9170038.

Test system: MS2 coat protein
Assay: apparent KD of MS2 coat protein; designed switch direction (-1 OFF switch, 1 ON switch): -1; higher = weaker reporter binding
Method in brief: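 On Illumina chips, designed RNA switches with common flanks were made by stalled E. coli RNA polymerase. Titrations with SNAP-549-labelled MS2 coat protein, doubling from 0.7 or 1.5 nM to 3 µM, were done with no input, with 200 uM small-molecule ligand, or with an oligonucleotide input. Apparent KD is the median per design over clusters, from curve fits of normalised cluster fluorescence.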

[1] = input ligand: microRNA oligo, concentration not stated
[2] = Eterna round: R95, input ligand: FMN 200 uM
[3] = Eterna round: R95, input ligand: microRNA oligo, concentration not stated
[4] = Eterna round: R95, input ligand: none

Sequence	apparent KD of MS2 coat protein (input ligand: FMN 200 uM)	apparent KD of MS2 coat protein [1]	apparent KD of MS2 coat protein (input ligand: none)	apparent KD of MS2 coat protein [2]	apparent KD of MS2 coat protein [3]	apparent KD of MS2 coat protein [4]
GGAGGAAACGUAGGAUAUUGAAUAAAGCGGAAACGCAAGACAUGAGGAUCACCCAUGUGUCCGGACGAGAAGGGCGAAGAAGAA [AK 1] (Eterna round: R96, puzzle: Exclusion NG 2)	59.8 nM	60.1 nM	80.8 nM	–	–	–
GGAGGAGGAGUGAGGAUAUGGUGGUGGAAACACCACCAGAAGGCACAUGAGGAUCACCCAUGUGAUGUAGAGAA [AK-MS2ROC-r4-Bmoexclusion4-16] (Eterna round: R97, puzzle: Brourd's mod of Exclusion 4)	27.4 nM	–	16 nM	–	–	–
GGAGGCCAGUAAGGAUAUUCAUGGUAGAUUCAUGAAGAAGGUACGGAGUGUCCUGACAUGAGGAUCACCCAUGUAGCCUCCAAG [Betien] (Eterna round: R96, puzzle: Exclusion NG 1)	76.4 nM	25.1 nM	34.3 nM	–	–	–
GGAUAAAACUGAGGAUAUGAGGAGAGAGAGAGAUCAGAAGGCAGACAUGAGGAUCACCCAUGUGAGUUCUCGAUAAGAAACACG [Prohibition 56 - Jieux - Exclusion NG 1] (Eterna round: R96, puzzle: Exclusion NG 1)	58.9 nM	30.7 nM	38.3 nM	–	–	–
GGAUAUAACGUAGGAUAUCUGAGAAAUAGAUGAAGAGAAGGACGACAUGAGGAUCACCCAUGUGAUCUAUCAAUAUUAUACAUG [Prohibition 100 - Jieux - Exclusion NG 1] (Eterna round: R96, puzzle: Exclusion NG 1)	–	332 nM	–	–	–	–
GGAUAUAACGUAGGAUAUGAGCGCAACUGACGAUCAGAAGGACGACAUGAGGAUCACCCAUGUGAUCUAUCAAUAUUAUACAUG [Prohibition 95 - Jieux - Exclusion NG 1] (Eterna round: R96, puzzle: Exclusion NG 1)	590 nM	495 nM	977 nM	–	–	–
GGAUCAUAUGUCAGGAUAUGCUGGUCCUUGGAUCAGCAGAAGGGACAUGAGGAUCACCCAUGUCAUGAAGAUCC [Eli bmx4 4.79] (Eterna round: R97, puzzle: Brourd's mod of Exclusion 4)	203 nM	–	28.3 nM	–	–	–
GGAUCGAGUGUGAGGAUAUACCUAUGGAUACAUAGGUAGAAGGCACAUGAGGAUCACCCAUGUUCCUACGGUCC [Eli bmx4 4.08] (Eterna round: R97, puzzle: Brourd's mod of Exclusion 4)	713 nM	–	62.3 nM	–	–	–
GGAUGUUAGGAGGAUAUCUGACGUCGAAAAGAAGGAGAAGGCCUGACAUGAGGAUCACCCAUGUGGUCAAAAGA [Eresinbi] (puzzle: Exclusion 6)	–	–	–	1200 nM	110 nM	97.8 nM
GGAUUGCGGCAAGGAUAUCUUUGUCAACAUAAAACAUGAGGAUCACCCAUGUGCAUCUUCGUGUGAGAGAAGGUGCGGCGAUCC [Geceretima] (Eterna round: R96, puzzle: Exclusion NG 2)	1620 nM	248 nM	180 nM	–	–	–
GGAUUUACUGAGGAUAUUACAUCACCCGAUUGAUAAGAAGGCAGAACAUGAGGAUCACCCAUGUGGGUAGUCAA [Polaris3] (Eterna round: R97, puzzle: Exclusion 6)	70.1 nM	–	111 nM	–	–	–
GGCAUAAUGUAGGAUAUCGUAAUGGAAACAUUACGAGAAGGGCAAACAUGAGGAUCACCCAUGUUCCUUAAGCC [Mat - Exclusion 6 - Eli Mod - D70] (puzzle: Exclusion 6)	–	–	–	18.7 nM	14.2 nM	15.4 nM
GGCAUAAUGUAGGAUAUCGUAUUGGAAACAAUACGAGAAGGGCAAACAUGAGGAUCACCCAUGUUCCUUAAGCC [Mat - Exclusion 6 - Eli Mod - D71] (puzzle: Exclusion 6)	–	–	–	–	15.1 nM	–
GGCAUCGGAGGAUAUACUAAUGGUGAUGCCCGAAGCUUUCUACUUGAGGAUCACCCAAGUAGAAGGCCGAUGCC [jl-ex2.4.80 ViennaUCT mod] (Eterna round: R97, puzzle: Exclusion 2)	11 nM	–	13.1 nM	–	–	–
GGCAUGUAAGGAUAUCUAUCGGUGAGAAAACCAAUUGGGCAAGAGAAGGUACAUGAGGAUCACCCAUGUGGACC [Eternabot (L1) Solution 9] (Eterna round: R97, puzzle: Exclusion 4)	135 nM	–	44 nM	–	–	–
GGCCGGCGAGGAUAUACCGAAUGAAGGUGAUAUGAAUGAUUACAUGAGGAUCACCCAUGUAGAAGGCGCCGGCC [Default title] (Eterna round: R97, puzzle: Exclusion 2)	327 nM	–	146 nM	–	–	–
GGCCUUCCACGAGCUUUUUACAUGAGGAUCACCCAUGUGGUUUUUAGUCUUAUCCCGGGCCCGCUGUCGGGCCCGGG [-32.2, -52.8, A 13%] (Eterna round: R97, puzzle: Sensor, turn-off variant 1)	29.1 nM	–	33 nM	–	–	–

Sequence	apparent KD of MS2 coat protein (input ligand: FMN 200 uM)	apparent KD of MS2 coat protein [1]	apparent KD of MS2 coat protein (input ligand: none)	apparent KD of MS2 coat protein [2]	apparent KD of MS2 coat protein [3]	apparent KD of MS2 coat protein [4]
GGCGAAGUAGGAUAUACAUGAGGAUCACCCAUGUAACCAGAUGGCGUAGGUCUUCUAUGUAGAAGGGCUACGCC [jl-ex3-4.34 ViennaUCT mod] (Eterna round: R97, puzzle: Exclusion 3)	16.9 nM	–	17 nM	–	–	–
GGCGACCUAGGAUAUACAUGAGGAUCACCCAUGUUUAUCUAUUAGAUGAAGACGGGUUGUAGAAGGAGGAUAUU [JL Geriin mod] (Eterna round: R96, puzzle: Exclusion 3)	19.5 nM	14.6 nM	20.2 nM	–	–	–
GGCGACCUAGGAUAUACAUGAGGAUCACCCAUGUUUAUCUAUUAGAUGAAGACGGGUUGUAGAAGGAGGAUAUU [JL Geriin mod] (puzzle: Exclusion 3)	–	–	–	–	14.6 nM	–
GGCGGACAUGAGGAUCACCCAUGUCAGGAUAUGGUGCGAUCGUCGAUAGACGAUAGCACCAGAAGGGACACGCC [Mat - Exclusion 1 - Eli Mod - D1] (Eterna round: R97, puzzle: Exclusion 1)	22.2 nM	–	19.8 nM	–	–	–
GGCGGGACAGGAUAUCUAGCACUAAACAUGAGGAUCACCCAUGUGGUGGUCGCAGGUGUCAGAGAAGGGUCAAAAG [Atenabe] (puzzle: Exclusion 5)	–	–	–	193 nM	616 nM	1480 nM
GGCGUCGUGUAGGAUAUGAAUUGAAAGGCUUCGUCAGAAGGGCACACAUGAGGAUCACCCAUGUGACAGCUGAG [Eternabot (L1) Solution 78] (Eterna round: R97, puzzle: Exclusion 6)	20 nM	–	19.9 nM	–	–	–
GGGAGGAGUGUAGGAUAUCCGACAAUCCUGUCAGGAGAAGGGCACCCUACUUGAGGAUCACCCAAGUCUCCGGGUGCUCAAGAA [Mutated MS2 EX1.15] (Eterna round: R96, puzzle: Exclusion NG 1)	9.33 nM	8.22 nM	13.2 nM	–	–	–
GGGAGUGAAGGAUAUACAUGAGGAUCACCCAUGUGGGAGGAGAGAGGUGAGGAGGCUGGUAGAAGGUCAGGAUG [JR_Exclusion3_Sub006] (puzzle: Exclusion 3)	–	–	–	–	48.3 nM	–
GGGCUCGGAGGAUAUACAAUCUCGGGCUGAAAGGCUCGGGUACAUGAGGAUCACCCAUGUAGAAGGUCGGGCUC [-30.2, -27.6 kcal A 24%, 4bis,4] (Eterna round: R97, puzzle: Exclusion 2)	26 nM	–	15.9 nM	–	–	–
GGGCUGCGACACAGCCAAACAAAACAUGAGGAUCACCCAUGUCAGGAUAUACCGAUGCAGCAUCUGUAGAAGGGACAGAUCCAA [Lalaon] (Eterna round: R96, puzzle: Exclusion NG 3)	151 nM	68.8 nM	79.7 nM	–	–	–
GGGCUGUCAGGAUAUACAUGAGGAUCACCCAUGUCGAGCUAUGAUAGGGCAAGAGUAGGUAGAAGGGACGAGAG [JR_Exclu3_Sub043] (puzzle: Exclusion 3)	–	–	–	43.7 nM	32.6 nM	32.7 nM
GGGCUGUCAGGAUAUGGGCCCGGGCCCGAAAGGGUUUGGGCCCAGAAGGGACAUGAGGAUCACCCAUGUGGCCC [-43.8, -42.8 kcal, A 20%, 5b-0] (Eterna round: R97, puzzle: Exclusion 4)	34.2 nM	–	34.5 nM	–	–	–
GGGUAGUGAGGAUAUCGUUGUUAGGAGGAGAAGGUAGGAGGCGAGAAGGCACAUGAGGAUCACCCAUGUAUGAG [JR_Exclu4_Sub064] (puzzle: Exclusion 4)	–	–	–	–	26.9 nM	–
GGGUCACAUGAGGAUCACCCAUGUGAGGAUAUGAUACUAUGUACUUCGGUACAUAGUAUCAGAAGGCACAUAAA [Ex1-3: 18] (puzzle: Exclusion 1)	–	–	–	–	36.6 nM	–
GGGUGUCCAGUGAGGAUAUCCAGCGCUCAGGCGCAGGAGAAGGCACAUGAGGAUCACCCAUGUAGCUGAAGAAA [Geenra] (puzzle: Brourd's mod of Exclusion 4)	–	–	–	116 nM	30.9 nM	41.7 nM
GGUACUCAAAGAGUACCAAUACGAACAUGAGGAUCACCCAUGUAGGAUAUGCUACUCAAAGAGUAGCAGAAGGAUAUGAACCCU [Far Half Aptamer v8] (Eterna round: R96, puzzle: Exclusion NG 3)	33.1 nM	16.8 nM	26.3 nM	–	–	–
GGUAGUAUGAGUAGUCCUCAUUGAAGAGAGUGGUAAGAAACAUGAGGAUCACCCAUGUAAGAACAAGCUUUUGCUCA [JR_Sv3TOV2_Sub005] (puzzle: Sensor v3, turn-off variant 2)	–	–	–	191 nM	15.9 nM	266 nM
